Here are results for one substance from article PMC3328371.

This assay has as its target Dock8 (endogenous) (UniProt Q8C147). Description: anti-Flag co-IP, Dock8 immunoblot. Particulars: reference: Flag-Mob1B wild type; sites T12,T35.

As for “Flag-Mob1B (previously MOBKL1A) (from UniProt Q7L9L4) Flag-Mob1B[Thr12Ala/Thr35Ala]”, the “binding against the reference” value is “lost”.
